Target: CD47 (mouse (endogenous in AB1 cells)) (UniProt Q61735)
Experiment: proximity ligation; fixed MM (AB1) cells on coverslips, resting (PBS) or treated overnight with 400 nM BoxA or 10 nM CXCL12; primary antibodies to CD47 together with anti-CXCR4, anti-RAGE or anti-TLR4; Duolink probes; confocal imaging, signal per cell quantified

Chain of UniProt Q61735 (Q61735 19-303): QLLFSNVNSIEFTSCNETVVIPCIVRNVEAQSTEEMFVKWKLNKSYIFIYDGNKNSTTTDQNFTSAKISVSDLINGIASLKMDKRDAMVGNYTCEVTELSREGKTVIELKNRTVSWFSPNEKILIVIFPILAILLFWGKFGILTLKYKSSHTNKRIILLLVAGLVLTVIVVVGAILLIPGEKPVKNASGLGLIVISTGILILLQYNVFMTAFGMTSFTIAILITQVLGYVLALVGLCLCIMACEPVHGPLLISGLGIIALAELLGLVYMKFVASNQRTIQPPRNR

Row | PLA signal, fold lower than that of CD47 and CXCR4 (fold lower than CD47/CXCR4) | Substance
1 | 100 | RAGE (from UniProt Q62151 23-402) (receptor)
2 | 100 | TLR4 (from UniProt Q9QUK6 26-835) (receptor)

Reference: PMC8185548
